From patent US20170319655A1 (UNIVERSITY OF MARYLAND BALTIMORE, published 2017)

How the values were obtained:
[1] = target: T1, MUC1-ED on Ad-NEU1-infected airway epithelial cells (A549 cells; SAECs), desialylated by overexpressed NEU1 (human, UniProt P15941 24-1255, glycans desialylated by overexpressed NEU1); experiment: Scatchard transformation of Alexa Fluor 594-flagellin binding to A549 cells
T1 construct: Endogenous MUC1 of human airway ECs that overexpress NEU1; also called Ad-NEU1-infected ECs
T1 sequence (P15941 24-1255 limits assumed): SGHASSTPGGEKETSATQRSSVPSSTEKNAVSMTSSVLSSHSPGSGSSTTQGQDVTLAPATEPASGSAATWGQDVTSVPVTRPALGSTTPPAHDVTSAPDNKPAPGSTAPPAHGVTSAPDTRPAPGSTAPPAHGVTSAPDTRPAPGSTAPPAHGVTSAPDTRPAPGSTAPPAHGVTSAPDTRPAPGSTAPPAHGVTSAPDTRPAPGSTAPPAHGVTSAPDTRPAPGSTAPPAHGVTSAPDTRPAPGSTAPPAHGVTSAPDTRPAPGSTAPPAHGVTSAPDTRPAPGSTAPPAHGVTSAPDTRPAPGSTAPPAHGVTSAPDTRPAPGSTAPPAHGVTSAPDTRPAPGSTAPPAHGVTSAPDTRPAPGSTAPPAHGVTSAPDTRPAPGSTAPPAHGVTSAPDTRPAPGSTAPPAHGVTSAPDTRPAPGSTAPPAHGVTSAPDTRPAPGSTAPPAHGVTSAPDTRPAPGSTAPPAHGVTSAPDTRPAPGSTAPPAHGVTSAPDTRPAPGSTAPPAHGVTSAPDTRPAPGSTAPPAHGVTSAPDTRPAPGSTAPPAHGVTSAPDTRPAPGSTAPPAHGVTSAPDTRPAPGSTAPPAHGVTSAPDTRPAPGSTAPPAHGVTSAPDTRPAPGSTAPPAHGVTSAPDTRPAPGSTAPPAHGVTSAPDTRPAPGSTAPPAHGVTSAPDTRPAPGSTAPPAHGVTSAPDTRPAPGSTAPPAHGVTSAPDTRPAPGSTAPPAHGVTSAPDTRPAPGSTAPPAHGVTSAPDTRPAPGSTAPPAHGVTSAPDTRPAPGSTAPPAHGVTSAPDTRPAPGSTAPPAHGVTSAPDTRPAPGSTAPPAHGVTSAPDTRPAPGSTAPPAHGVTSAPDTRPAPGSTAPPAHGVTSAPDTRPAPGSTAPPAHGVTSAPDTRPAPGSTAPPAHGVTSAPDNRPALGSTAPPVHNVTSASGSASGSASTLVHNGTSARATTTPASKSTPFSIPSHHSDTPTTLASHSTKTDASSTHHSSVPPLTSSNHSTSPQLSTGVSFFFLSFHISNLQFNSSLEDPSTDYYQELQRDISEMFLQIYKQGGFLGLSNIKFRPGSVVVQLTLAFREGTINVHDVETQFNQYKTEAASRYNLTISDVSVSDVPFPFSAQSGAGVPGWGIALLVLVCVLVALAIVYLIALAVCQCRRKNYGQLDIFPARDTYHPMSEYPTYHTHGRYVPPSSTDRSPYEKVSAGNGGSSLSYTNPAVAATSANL

[2] = target: T2, MUC1-ED on Ad-GFP-infected airway epithelial cells (A549 cells; SAECs) (human, UniProt P15941 24-1255, endogenous sialylated glycans (alpha2,3- and alpha2,6-linked sialic acid)); experiment: Alexa Fluor 594-flagellin binding to Ad-GFP-infected A549 cells, 40 min at 4 C, fluorometry, Scatchard transformation; receptor named by the filing as MUC1-ED
T2 construct: Endogenous MUC1 of human airway ECs; also called Ad-GFP-infected ECs
T2 sequence (P15941 24-1255 limits assumed): as above

[3] = target: T1, MUC1-ED on Ad-NEU1-infected airway …; experiment: Alexa Fluor 594-flagellin binding to Ad-NEU1-infected A549 cells, 40 min at 4 C, fluorometry, Scatchard transformation; receptor named by the filing as MUC1-ED

B1: Pseudomonas aeruginosa (Pa) flagellin purified from Pa strain PA01, Alexa Fluor 594-labeled (ligand)
chain: MALTVNTNIASLNTQRNLNASSNDLNTSLQRLTTGYRINSAKDDAAGLQISNRLSNQISGLNVATRNANDGISLAQTAEGALQQSTNILQRIRDLALQSANGSNSDADRAALQKEVAAQQAELTRISDTTTFGGRKLLDGSFGTTSFQVGSNAYETIDISLQNASASAIGSYQVGSNGAGTVASVAGTATASGIASGTVNLVGGGQVKNIAIAAGDSAKAIAEKMDGAIPNLSARARTVFTADVSGVTGGSLNFDVTVGSNTVSLAGVTSTQDLADQLNSNSSKLGITASINDKGVLTITSATGENVKFGAQTGTATAGQVAVKVQGSDGKFEAAAKNVVAAGTAATTTIVTGYVQLNSPTAYSVSGTGTQASQVFGNASAAQKSSVASVDISTADGAQNAIAVVDNALAAIDAQRADLGAVQNRFKNTIDNLTNISENATNARSRIKDTDFAAETAALSKNQVLQQAGTAILAQANQLPQAVLSLLR
modifications: Alexa Fluor 594 label (site not stated)
notes: also called purified flagellin; Alexa Fluor 594-flagellin
B1 was tested, and the “fold reduction in Kd against Ad-GFP-infected ECs” value [1] was 2.9 fold, the Kd [2] was 7.35 nM and the Kd [3] was 2.54 nM.
